Assay results as given in patent US20100015126A1, “Methods of Binding of Cross-Beta Structures By Chaperones” (priority 2006, published 2010).

Target: T1, human BiP (Homo sapiens, UniProt P11021)
T1 construct: The human BiP gene except the signal peptide encoding region was obtained from Geneart (Germany); linker […]; made in house; host or cells: HEK 293E cells, transient transfection, PABC674 vector; secreted into the medium
Assay: Competition ELISA: BiP binding to misfolded proteins under influence of crossbeta binding compounds
Conditions: fixed sub-optimal BiP concentration
Procedure: Binding of chaperones to immobilized (misfolded) protein ligands was determined using an enzyme linked immuno sorbent assay (ELISA) approach. For this purpose 50 μl/well of potential ligands at indicated concentrations or coat buffer only for control and background measurement purposes, were coated overnight at 4° C. or coated for 1 h at room temperature, with motion, in 50 mM NaHCO3 pH 9.6 (coat buffer). In general, ligands were coated at 5 μg/ml, unless stated otherwise. For example, BiP binding peptides 6BB# and oxLDL were coated at 50 μg/ml. Native haemoglobin (Sigma-Aldrich, H7379), albumin, IgIV Gammagard and ovalbumin controls were prepared from lyophilized stocks. The controls were prepared by dissolving lyophilized proteins at 1 mg/ml in PBS upon resuspending by pipetting, followed by a 30 minutes period at the roller device, at room temperature. The protein solutions were centrifuged for 10 minutes at 16,000*g and diluted in coat buffer. After coating the plates were washed at least three times with 50 mM Tris-HCl pH 7.3, 150 mM NaCl, 0.1% v/v Tween20, and blocked with Blocking reagent (Roche Diagnostics, Almere, The Netherlands; 11112589001), for 1 h at room temperature, with motion. Plates were washed three times and incubated in triplicate with indicated chaperone dilution series, at 50 μl/well, for 1 h at room temperature, with constant motion. For HSP90, 5 mM DTT is incorporated in the binding buffer (PBS/0.1% Tween20) to avoid unwanted disulfide bond formation of the HSP90. […] After four wash cycles, secondary antibodies were added to the wells when required, 50 μl/well, for 45′ at room temperature, with motion. RAMPO and SWARPO were used at 3000 times dilution. […] In a second experiment with more immobilized misfolded proteins and controls, the detection of bound HSP90 with the mix of two anti-HSP90 antibodies was achieved by mixing 1:1500 SWARPO with 1:3000 RAMPO. After 5 washes with wash buffer followed by two washes with PBS, binding of antibodies was assessed. […] Plates were read at 450 nm. Triplicates were averaged and standard deviations calculated. […] Subsequently, sub-optimal concentrations of chaperones for binding to misfolded protein ligands are determined, and these concentrations are used for inhibition studies.
In a subsequent study we analysed whether BiP interacts directly with the crossbeta structure, by performing ELISA binding studies with a fixed sub-optimal concentration of BiP and concentration series of crossbeta binding compounds. […]

T1 sequence (P11021 19-654): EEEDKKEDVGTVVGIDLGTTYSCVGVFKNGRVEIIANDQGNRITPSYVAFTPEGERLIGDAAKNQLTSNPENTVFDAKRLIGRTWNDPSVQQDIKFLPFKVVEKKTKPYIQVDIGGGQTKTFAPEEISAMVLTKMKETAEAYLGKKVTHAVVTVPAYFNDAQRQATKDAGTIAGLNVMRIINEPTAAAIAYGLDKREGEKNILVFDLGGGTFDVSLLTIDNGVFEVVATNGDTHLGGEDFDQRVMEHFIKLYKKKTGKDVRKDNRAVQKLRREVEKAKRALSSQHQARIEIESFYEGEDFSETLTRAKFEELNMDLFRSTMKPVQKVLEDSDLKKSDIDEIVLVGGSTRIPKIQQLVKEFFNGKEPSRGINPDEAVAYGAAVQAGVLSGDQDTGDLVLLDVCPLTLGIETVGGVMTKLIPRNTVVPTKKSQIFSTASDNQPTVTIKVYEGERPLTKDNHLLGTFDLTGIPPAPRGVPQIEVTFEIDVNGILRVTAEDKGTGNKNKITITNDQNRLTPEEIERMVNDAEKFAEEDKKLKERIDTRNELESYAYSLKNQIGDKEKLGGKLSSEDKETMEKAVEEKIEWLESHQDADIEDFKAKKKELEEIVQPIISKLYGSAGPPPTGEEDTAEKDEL

B1: dOVA standard: heat-denatured chicken ovalbumin (protein)
chain: GSIGAASMEFCFDVFKELKVHHANENIFYCPIAIMSALAMVYLGAKDSTRTQINKVVRFDKLPGFGDSIEAQCGTSVNVHSSLRDILNQITKPNDVYSFSLASRLYAEERYPILPEYLQCVKELYRGGLEPINFQTAADQARELINSWVESQTNGIIRNVLQPSSVDSQTAMVLVNAIVFKGLWEKAFKDEDTQAMPFRVTEQESKPVQMMYQIGLFRVASMASEKMKILELPFASGTMSMLVLLPDEVSGLEQLESIINFEKLTEWTSSNVMEERKIKVYLPRMKMEEKYNLTSVLMAMGITDVFSSSANLSGISSAESLKISQAVHAAHAEINEAGREVVGSAEAGVDAASVSEEFRADHPFLFCIKHIATNAVLFFGRCVSP
10 mM ε-amino caproic acid
  Influence of K2P tPA on interaction of BiP with misfolded protein: −
  Influence of tPA on interaction of BiP with misfolded protein: ↓ (a ↓ sign refers to inhibited abolished binding of BiP)
Concentration series of Congo red
  Influence of Congo red on interaction of BiP with misfolded protein: ↓ (a ↓ sign refers to inhibited abolished binding of BiP)
Concentration series of ThS
  Influence of ThS on interaction of BiP with misfolded protein: ↓ (a ↓ sign refers to inhibited abolished binding of BiP)
